B1: TRIM63 (parent)
chain: QEKKLSFIEALIQQYQEQLDKSTK

Variants of: B1
Test: protein stability index of a GFP-peptide fusion (GPS, HEK-293T) (PSI 1-6); higher = more stable
Conditions: c terminus: a fixed tail appended
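Further: lentivirally expressed fusions sorted by FACS into six bins by GFP to DsRed ratio, PSI derived from sequencing read proportions per bin multiplied by bin number.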

Protein stability index, by site and new letter:
Q14: M 2.44; C 2.8; S 3.5; Y 1.95; R 2.2; E 2.91; H 2.03; N 3.03; V 2.49; W 1.07; P 3.86; L 2.89; T 3.07; D 3.17; G 3.13; A 2.43; I 2.98
Y15: A 2.61; S 3.52; H 3.38; Q 3.87; N 3.75; R 4.63; G 4.41; W 1; F 1.86; K 3.9; I 2.1; T 2.98; C 2.1; V 2.09; L 2.08; D 4.75; P 4.56
A10: E 3.42; P 3.98; K 2.39; F 2.28; Y 2.06; C 2.14; I 2.54; W 1.63; M 1.96; S 2.89; T 2.72; N 2.73; R 2.53; D 3.47; Q 2.89; L 2.37; V 2.38; H 2.75; G 3.33
I12: R 2.33; W 2.11; V 2.6; N 4.47; Y 2.37; S 4.28; K 3.7; E 4.39; L 3.51; P 5.67; G 3.98; M 2.95; C 3.87; F 3.18; T 4.45; A 3.8; D 5.25
F7: W 4.19; T 3.98; Y 2.48; V 3.45
E17: F 2.25; G 2.21; C 2.47; A 2; D 3
Q13: I 2.02; D 3.54; G 2.53; V 1.98; F 1.84; R 2.7; E 3.54; W 1.32; L 2.1; Y 2.35; A 2.46; K 2.64; M 2.02; P 4.35; N 2.79; T 2.74; C 2.67
L11: A 3.71; H 4.63; P 5.29; M 3.09; V 2.65; D 5.13; Y 3.31; E 4.73; I 2.02; N 4.78; K 4.45; W 3.43; T 3.96; C 4.29; F 2.79; G 4.46; Q 4.81; R 4.58; S 5.13
I8: R 4.08; H 4.92; A 3.83; E 4.76; M 3.96; T 2.64; K 4.17; P 4.89; N 5.18; V 1.28; W 3.56; G 5.05; D 4.44; Q 4.32; Y 3.63; C 4.38; F 2.78; L 2.14
E9: Q 2.76; C 2.05; I 2.06; F 1.8; W 1.6; T 1.79; L 1.39; K 3.62; V 1.7; M 2.22; N 2.64; R 2.82; Y 1.57; H 2.33; A 1.93; S 2.68; P 3.96
Q16: I 1.87; V 2.7; L 1.49; W 1.74; S 2.41; R 2.38; E 3.09; M 1.48; K 4.03; H 2.57; A 2.5; G 3.81; C 2; Y 2.32; T 2.62; N 3.05; F 2.07

Source: the supplement of paper PMC10567573
